Patent US20220010021A1 (Sanofi, published 2022)

T1: human beta-Klotho (KLB) (human, UniProt Q86Z14 53-997)
T1 construct: also called human KLB
T1 sequence (looked up): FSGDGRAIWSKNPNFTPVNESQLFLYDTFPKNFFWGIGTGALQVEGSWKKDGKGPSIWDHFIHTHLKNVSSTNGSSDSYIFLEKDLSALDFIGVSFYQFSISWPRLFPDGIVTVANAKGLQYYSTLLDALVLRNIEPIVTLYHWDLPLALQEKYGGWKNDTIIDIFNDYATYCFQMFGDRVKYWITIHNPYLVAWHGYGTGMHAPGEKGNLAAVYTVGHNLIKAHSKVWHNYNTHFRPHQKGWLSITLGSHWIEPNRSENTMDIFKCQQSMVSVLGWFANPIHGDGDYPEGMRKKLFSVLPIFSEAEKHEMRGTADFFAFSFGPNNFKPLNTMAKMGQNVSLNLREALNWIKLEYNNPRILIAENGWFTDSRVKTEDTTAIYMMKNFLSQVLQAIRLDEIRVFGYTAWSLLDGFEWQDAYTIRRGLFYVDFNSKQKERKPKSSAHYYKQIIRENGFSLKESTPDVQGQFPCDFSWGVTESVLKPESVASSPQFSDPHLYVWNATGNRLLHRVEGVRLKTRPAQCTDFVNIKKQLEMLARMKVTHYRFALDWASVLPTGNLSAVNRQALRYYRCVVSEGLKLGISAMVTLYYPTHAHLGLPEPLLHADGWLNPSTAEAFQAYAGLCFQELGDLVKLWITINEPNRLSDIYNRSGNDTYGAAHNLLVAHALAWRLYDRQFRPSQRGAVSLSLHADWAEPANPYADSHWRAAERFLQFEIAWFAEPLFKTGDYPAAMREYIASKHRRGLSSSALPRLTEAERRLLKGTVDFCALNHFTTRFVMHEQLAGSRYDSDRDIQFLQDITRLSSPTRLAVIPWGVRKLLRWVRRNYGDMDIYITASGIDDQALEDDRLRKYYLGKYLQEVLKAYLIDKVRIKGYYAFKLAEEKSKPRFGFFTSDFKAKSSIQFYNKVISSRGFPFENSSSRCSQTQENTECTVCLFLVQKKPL


Experiments:
[1] = target: human FGFR1c/KLB cell surface receptor complex on iLite FGF21 reporter cells (human, UniProt P11362 22-822; Q86Z14 1-1044); experiment: cell-based or functional assay; for Mean E max (%): reference of the scale not given here
human FGFR1c/KLB cell surface receptor complex on iLite FGF21 reporter cells, sequence (P11362 22-822, chain 1 of 2): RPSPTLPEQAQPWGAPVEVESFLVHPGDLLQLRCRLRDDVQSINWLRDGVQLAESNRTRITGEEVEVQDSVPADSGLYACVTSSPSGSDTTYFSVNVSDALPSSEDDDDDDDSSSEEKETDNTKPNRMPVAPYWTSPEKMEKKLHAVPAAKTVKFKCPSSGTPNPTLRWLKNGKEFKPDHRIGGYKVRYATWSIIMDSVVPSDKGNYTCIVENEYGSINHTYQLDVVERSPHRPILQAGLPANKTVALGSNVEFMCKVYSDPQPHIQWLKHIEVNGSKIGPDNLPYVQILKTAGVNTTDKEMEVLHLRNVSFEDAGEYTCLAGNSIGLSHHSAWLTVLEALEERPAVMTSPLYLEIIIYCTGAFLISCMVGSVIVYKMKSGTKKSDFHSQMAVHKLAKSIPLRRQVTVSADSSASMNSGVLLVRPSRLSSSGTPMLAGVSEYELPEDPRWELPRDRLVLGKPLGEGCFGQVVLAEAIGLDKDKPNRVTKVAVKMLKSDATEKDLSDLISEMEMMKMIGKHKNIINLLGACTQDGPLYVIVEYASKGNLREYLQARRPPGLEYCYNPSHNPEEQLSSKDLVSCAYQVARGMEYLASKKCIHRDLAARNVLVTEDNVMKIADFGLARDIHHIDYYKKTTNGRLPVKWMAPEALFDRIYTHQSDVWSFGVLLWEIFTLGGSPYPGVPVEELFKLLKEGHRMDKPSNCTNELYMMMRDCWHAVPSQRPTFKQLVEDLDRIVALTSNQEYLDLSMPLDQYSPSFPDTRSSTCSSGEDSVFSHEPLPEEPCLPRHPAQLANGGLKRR
human FGFR1c/KLB cell surface receptor complex on iLite FGF21 reporter cells, sequence (Q86Z14 whole entry, chain 2 of 2): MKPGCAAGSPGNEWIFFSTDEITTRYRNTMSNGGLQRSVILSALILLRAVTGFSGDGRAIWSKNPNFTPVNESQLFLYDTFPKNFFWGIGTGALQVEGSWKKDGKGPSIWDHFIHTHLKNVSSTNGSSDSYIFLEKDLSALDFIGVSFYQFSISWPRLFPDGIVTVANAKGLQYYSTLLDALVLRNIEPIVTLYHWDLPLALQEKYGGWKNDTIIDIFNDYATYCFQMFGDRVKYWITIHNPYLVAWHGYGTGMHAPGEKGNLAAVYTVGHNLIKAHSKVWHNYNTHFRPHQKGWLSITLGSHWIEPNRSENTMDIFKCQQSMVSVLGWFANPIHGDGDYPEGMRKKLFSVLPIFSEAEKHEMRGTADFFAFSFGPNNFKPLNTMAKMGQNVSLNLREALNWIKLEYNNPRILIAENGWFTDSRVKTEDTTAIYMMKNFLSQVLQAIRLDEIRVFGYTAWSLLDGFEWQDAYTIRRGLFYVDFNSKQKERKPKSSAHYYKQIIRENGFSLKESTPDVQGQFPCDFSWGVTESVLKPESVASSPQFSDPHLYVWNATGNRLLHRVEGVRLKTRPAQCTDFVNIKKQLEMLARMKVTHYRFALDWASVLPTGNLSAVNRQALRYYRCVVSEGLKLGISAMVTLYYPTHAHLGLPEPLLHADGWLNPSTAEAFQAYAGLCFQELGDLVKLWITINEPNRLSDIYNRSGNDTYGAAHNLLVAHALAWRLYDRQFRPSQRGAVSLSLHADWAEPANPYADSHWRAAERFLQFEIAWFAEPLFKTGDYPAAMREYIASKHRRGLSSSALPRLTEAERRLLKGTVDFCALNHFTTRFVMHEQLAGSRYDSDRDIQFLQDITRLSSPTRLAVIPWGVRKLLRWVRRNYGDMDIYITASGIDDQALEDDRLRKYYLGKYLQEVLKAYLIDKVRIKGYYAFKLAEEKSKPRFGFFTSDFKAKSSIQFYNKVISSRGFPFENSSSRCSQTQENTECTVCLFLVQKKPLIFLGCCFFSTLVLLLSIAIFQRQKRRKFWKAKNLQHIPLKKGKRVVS

[2] = target: T1, human beta-Klotho (KLB); experiment: BLI off-rate screen (Octet), Ab captured via Fc;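 note: antibody supernatants applied at 25 µg/mL, dissociation monitored over 1800 s in D-PBS with 0.1% BSA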

Binder	Mean E max (%) [1] [%]	Mean EC50 [1] [pM]	koff [2] [s⁻¹]
16H7 variant, light chain P54M (antibody, human IgG4 S228P, lambda, V domains shown, IgG4 backbone) VH: not shown VL: SYVLTQPPSVSVAPGQTARITCGGNNIGSESVHWYQQKPGQAPVLVVYDDSDRMSGIPERFSGSNSGNTATLTISRVEAGDEADYYCQVWDGNSDHVVFGGGTKLTVLG	98	87	3.2e-05
16H7 variant, light chain S51G (antibody, human IgG4 S228P, lambda, V domains shown, IgG4 backbone) VH: not shown VL: SYVLTQPPSVSVAPGQTARITCGGNNIGSESVHWYQQKPGQAPVLVVYDDGDRPSGIPERFSGSNSGNTATLTISRVEAGDEADYYCQVWDGNSDHVVFGGGTKLTVLG	104	129	0.0001
16H7 variant, light chain P54W (antibody, human IgG4 S228P, lambda, V domains shown, IgG4 backbone) VH: not shown VL: SYVLTQPPSVSVAPGQTARITCGGNNIGSESVHWYQQKPGQAPVLVVYDDSDRWSGIPERFSGSNSGNTATLTISRVEAGDEADYYCQVWDGNSDHVVFGGGTKLTVLG	98	91	0.00017
16H7 variant, light chain R53M (antibody, human IgG4 S228P, lambda, V domains shown, IgG4 backbone) VH: not shown VL: SYVLTQPPSVSVAPGQTARITCGGNNIGSESVHWYQQKPGQAPVLVVYDDSDMPSGIPERFSGSNSGNTATLTISRVEAGDEADYYCQVWDGNSDHVVFGGGTKLTVLG	95	99	0.00018
16H7 variant, light chain P54S (antibody, human IgG4 S228P, lambda, V domains shown, IgG4 backbone) VH: not shown VL: SYVLTQPPSVSVAPGQTARITCGGNNIGSESVHWYQQKPGQAPVLVVYDDSDRSSGIPERFSGSNSGNTATLTISRVEAGDEADYYCQVWDGNSDHVVFGGGTKLTVLG	102	103	7.9e-05
16H7 variant, light chain Q88G (antibody, human IgG4 S228P, lambda, V domains shown, IgG4 backbone) VH: not shown VL: SYVLTQPPSVSVAPGQTARITCGGNNIGSESVHWYQQKPGQAPVLVVYDDSDRPSGIPERFSGSNSGNTATLTISRVEAGDEADYYCGVWDGNSDHVVFGGGTKLTVLG	110	129	0.00017
16H7 variant, light chain R53S (antibody, human IgG4 S228P, lambda, V domains shown, IgG4 backbone) VH: not shown VL: SYVLTQPPSVSVAPGQTARITCGGNNIGSESVHWYQQKPGQAPVLVVYDDSDSPSGIPERFSGSNSGNTATLTISRVEAGDEADYYCQVWDGNSDHVVFGGGTKLTVLG	105	113	0.00029
16H7 variant, light chain P54Y (antibody, human IgG4 S228P, lambda, V domains shown, IgG4 backbone) VH: not shown VL: SYVLTQPPSVSVAPGQTARITCGGNNIGSESVHWYQQKPGQAPVLVVYDDSDRYSGIPERFSGSNSGNTATLTISRVEAGDEADYYCQVWDGNSDHVVFGGGTKLTVLG	110	150	8.3e-05
16H7 variant, light chain R53A (antibody, human IgG4 S228P, lambda, V domains shown, IgG4 backbone) VH: not shown VL: SYVLTQPPSVSVAPGQTARITCGGNNIGSESVHWYQQKPGQAPVLVVYDDSDAPSGIPERFSGSNSGNTATLTISRVEAGDEADYYCQVWDGNSDHVVFGGGTKLTVLG	89	132	0.0002
16H7 variant, light chain R53L (antibody, human IgG4 S228P, lambda, V domains shown, IgG4 backbone) VH: not shown VL: SYVLTQPPSVSVAPGQTARITCGGNNIGSESVHWYQQKPGQAPVLVVYDDSDLPSGIPERFSGSNSGNTATLTISRVEAGDEADYYCQVWDGNSDHVVFGGGTKLTVLG	106	151	2e-05
16H7 variant, light chain S55D (antibody, human IgG4 S228P, lambda, V domains shown, IgG4 backbone) VH: not shown VL: SYVLTQPPSVSVAPGQTARITCGGNNIGSESVHWYQQKPGQAPVLVVYDDSDRPDGIPERFSGSNSGNTATLTISRVEAGDEADYYCQVWDGNSDHVVFGGGTKLTVLG	109	146	3.6e-05
16H7 variant, light chain R53Q (antibody, human IgG4 S228P, lambda, V domains shown, IgG4 backbone) VH: not shown VL: SYVLTQPPSVSVAPGQTARITCGGNNIGSESVHWYQQKPGQAPVLVVYDDSDQPSGIPERFSGSNSGNTATLTISRVEAGDEADYYCQVWDGNSDHVVFGGGTKLTVLG	100	131	0.00024
16H7 variant, light chain P54V (antibody, human IgG4 S228P, lambda, V domains shown, IgG4 backbone) VH: not shown VL: SYVLTQPPSVSVAPGQTARITCGGNNIGSESVHWYQQKPGQAPVLVVYDDSDRVSGIPERFSGSNSGNTATLTISRVEAGDEADYYCQVWDGNSDHVVFGGGTKLTVLG	109	110	4.1e-05
16H7 variant, light chain R53I (antibody, human IgG4 S228P, lambda, V domains shown, IgG4 backbone) VH: not shown VL: SYVLTQPPSVSVAPGQTARITCGGNNIGSESVHWYQQKPGQAPVLVVYDDSDIPSGIPERFSGSNSGNTATLTISRVEAGDEADYYCQVWDGNSDHVVFGGGTKLTVLG	100	151	1.7e-05
16H7 variant, light chain Q88A (antibody, human IgG4 S228P, lambda, V domains shown, IgG4 backbone) VH: not shown VL: SYVLTQPPSVSVAPGQTARITCGGNNIGSESVHWYQQKPGQAPVLVVYDDSDRPSGIPERFSGSNSGNTATLTISRVEAGDEADYYCAVWDGNSDHVVFGGGTKLTVLG	108	133	0.00011
16H7 variant, light chain Q88M (antibody, IgG4, V domains shown, IgG4 backbone; copies: 2 + 2) VH: not shown VL: SYVLTQPPSVSVAPGQTARITCGGNNIGSESVHWYQQKPGQAPVLVVYDDSDRPSGIPERFSGSNSGNTATLTISRVEAGDEADYYCMVWDGNSDHVVFGGGTKLTVLG	90	104	9.9e-05
16H7 variant, light chain P54R (antibody, human IgG4 S228P, lambda, V domains shown, IgG4 backbone) VH: not shown VL: SYVLTQPPSVSVAPGQTARITCGGNNIGSESVHWYQQKPGQAPVLVVYDDSDRRSGIPERFSGSNSGNTATLTISRVEAGDEADYYCQVWDGNSDHVVFGGGTKLTVLG	104	111	0.00011
16H7 variant, light chain S55C (antibody, human IgG4 S228P, lambda, V domains shown, IgG4 backbone) VH: not shown VL: SYVLTQPPSVSVAPGQTARITCGGNNIGSESVHWYQQKPGQAPVLVVYDDSDRPCGIPERFSGSNSGNTATLTISRVEAGDEADYYCQVWDGNSDHVVFGGGTKLTVLG	91	244	6.3e-05
16H7 variant, light chain R53H (antibody, human IgG4 S228P, lambda, V domains shown, IgG4 backbone) VH: not shown VL: SYVLTQPPSVSVAPGQTARITCGGNNIGSESVHWYQQKPGQAPVLVVYDDSDHPSGIPERFSGSNSGNTATLTISRVEAGDEADYYCQVWDGNSDHVVFGGGTKLTVLG	103	153	0.00015
16H7 variant, light chain R53P (antibody, human IgG4 S228P, lambda, V domains shown, IgG4 backbone) VH: not shown VL: SYVLTQPPSVSVAPGQTARITCGGNNIGSESVHWYQQKPGQAPVLVVYDDSDPPSGIPERFSGSNSGNTATLTISRVEAGDEADYYCQVWDGNSDHVVFGGGTKLTVLG	92	126	0.00028
16H7 variant, light chain R53T (antibody, human IgG4 S228P, lambda, V domains shown, IgG4 backbone) VH: not shown VL: SYVLTQPPSVSVAPGQTARITCGGNNIGSESVHWYQQKPGQAPVLVVYDDSDTPSGIPERFSGSNSGNTATLTISRVEAGDEADYYCQVWDGNSDHVVFGGGTKLTVLG	109	134	8.7e-05
16H7 variant, light chain Q88L (antibody, IgG4, V domains shown, IgG4 backbone; copies: 2 + 2) VH: not shown VL: SYVLTQPPSVSVAPGQTARITCGGNNIGSESVHWYQQKPGQAPVLVVYDDSDRPSGIPERFSGSNSGNTATLTISRVEAGDEADYYCLVWDGNSDHVVFGGGTKLTVLG	107	134	9.9e-05
16H7 variant, light chain P54T (antibody, human IgG4 S228P, lambda, V domains shown, IgG4 backbone) VH: not shown VL: SYVLTQPPSVSVAPGQTARITCGGNNIGSESVHWYQQKPGQAPVLVVYDDSDRTSGIPERFSGSNSGNTATLTISRVEAGDEADYYCQVWDGNSDHVVFGGGTKLTVLG	108	113	0.00018
16H7 variant, light chain P54N (antibody, human IgG4 S228P, lambda, V domains shown, IgG4 backbone) VH: not shown VL: SYVLTQPPSVSVAPGQTARITCGGNNIGSESVHWYQQKPGQAPVLVVYDDSDRNSGIPERFSGSNSGNTATLTISRVEAGDEADYYCQVWDGNSDHVVFGGGTKLTVLG	105	150	0.00014
16H7 variant, light chain R53K (antibody, human IgG4 S228P, lambda, V domains shown, IgG4 backbone) VH: not shown VL: SYVLTQPPSVSVAPGQTARITCGGNNIGSESVHWYQQKPGQAPVLVVYDDSDKPSGIPERFSGSNSGNTATLTISRVEAGDEADYYCQVWDGNSDHVVFGGGTKLTVLG	98	114	4e-05
16H7 variant, light chain R53C (antibody, human IgG4 S228P, lambda, V domains shown, IgG4 backbone) VH: not shown VL: SYVLTQPPSVSVAPGQTARITCGGNNIGSESVHWYQQKPGQAPVLVVYDDSDCPSGIPERFSGSNSGNTATLTISRVEAGDEADYYCQVWDGNSDHVVFGGGTKLTVLG	107	147	0.00044
